Results as given in paper PMC4646087 (Journal of molecular biology, 2015).
Where two headings read alike, the source gives them in different places.

How the values were obtained:
[1] = target: T1, TOG2-SR construct of human CLASP2 (human); assay: ITC
T1 sequence (O75122 whole entry, looked up): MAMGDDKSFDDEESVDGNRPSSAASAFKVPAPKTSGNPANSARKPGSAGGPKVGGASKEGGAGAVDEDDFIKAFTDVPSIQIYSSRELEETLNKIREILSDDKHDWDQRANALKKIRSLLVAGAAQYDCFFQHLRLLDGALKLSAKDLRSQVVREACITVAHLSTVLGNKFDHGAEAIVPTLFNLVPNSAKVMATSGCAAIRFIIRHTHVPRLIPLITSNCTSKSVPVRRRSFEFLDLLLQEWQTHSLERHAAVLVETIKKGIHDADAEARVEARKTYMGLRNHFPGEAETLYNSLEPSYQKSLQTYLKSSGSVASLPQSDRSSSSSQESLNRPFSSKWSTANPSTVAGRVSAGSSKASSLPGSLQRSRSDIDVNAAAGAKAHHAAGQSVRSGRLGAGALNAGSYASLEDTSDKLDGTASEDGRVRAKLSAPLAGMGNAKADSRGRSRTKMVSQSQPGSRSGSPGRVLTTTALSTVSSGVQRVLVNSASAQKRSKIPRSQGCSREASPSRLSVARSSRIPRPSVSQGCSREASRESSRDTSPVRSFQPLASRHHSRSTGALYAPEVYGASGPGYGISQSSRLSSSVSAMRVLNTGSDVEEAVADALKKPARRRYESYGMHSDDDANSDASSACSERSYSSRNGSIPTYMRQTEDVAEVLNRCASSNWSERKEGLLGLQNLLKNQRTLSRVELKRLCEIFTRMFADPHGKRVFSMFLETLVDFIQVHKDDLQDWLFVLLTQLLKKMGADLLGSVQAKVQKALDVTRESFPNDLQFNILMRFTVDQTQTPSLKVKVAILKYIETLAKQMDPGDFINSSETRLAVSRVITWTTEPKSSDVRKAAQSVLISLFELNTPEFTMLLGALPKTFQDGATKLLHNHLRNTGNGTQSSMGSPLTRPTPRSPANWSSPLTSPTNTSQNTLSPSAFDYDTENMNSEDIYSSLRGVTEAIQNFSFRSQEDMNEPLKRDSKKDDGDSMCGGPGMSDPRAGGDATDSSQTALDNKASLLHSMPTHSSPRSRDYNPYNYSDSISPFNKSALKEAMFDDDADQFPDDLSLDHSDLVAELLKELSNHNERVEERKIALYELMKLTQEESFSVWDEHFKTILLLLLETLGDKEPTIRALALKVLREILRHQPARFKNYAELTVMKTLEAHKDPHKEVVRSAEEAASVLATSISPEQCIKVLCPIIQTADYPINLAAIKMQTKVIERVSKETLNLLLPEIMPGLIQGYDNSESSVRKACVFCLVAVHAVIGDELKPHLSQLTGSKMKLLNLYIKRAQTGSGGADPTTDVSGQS

[2] = target: T2, SR-TOG3 construct of human CLASP2 (human); assay: ITC
T2 sequence (O75122 whole entry, looked up): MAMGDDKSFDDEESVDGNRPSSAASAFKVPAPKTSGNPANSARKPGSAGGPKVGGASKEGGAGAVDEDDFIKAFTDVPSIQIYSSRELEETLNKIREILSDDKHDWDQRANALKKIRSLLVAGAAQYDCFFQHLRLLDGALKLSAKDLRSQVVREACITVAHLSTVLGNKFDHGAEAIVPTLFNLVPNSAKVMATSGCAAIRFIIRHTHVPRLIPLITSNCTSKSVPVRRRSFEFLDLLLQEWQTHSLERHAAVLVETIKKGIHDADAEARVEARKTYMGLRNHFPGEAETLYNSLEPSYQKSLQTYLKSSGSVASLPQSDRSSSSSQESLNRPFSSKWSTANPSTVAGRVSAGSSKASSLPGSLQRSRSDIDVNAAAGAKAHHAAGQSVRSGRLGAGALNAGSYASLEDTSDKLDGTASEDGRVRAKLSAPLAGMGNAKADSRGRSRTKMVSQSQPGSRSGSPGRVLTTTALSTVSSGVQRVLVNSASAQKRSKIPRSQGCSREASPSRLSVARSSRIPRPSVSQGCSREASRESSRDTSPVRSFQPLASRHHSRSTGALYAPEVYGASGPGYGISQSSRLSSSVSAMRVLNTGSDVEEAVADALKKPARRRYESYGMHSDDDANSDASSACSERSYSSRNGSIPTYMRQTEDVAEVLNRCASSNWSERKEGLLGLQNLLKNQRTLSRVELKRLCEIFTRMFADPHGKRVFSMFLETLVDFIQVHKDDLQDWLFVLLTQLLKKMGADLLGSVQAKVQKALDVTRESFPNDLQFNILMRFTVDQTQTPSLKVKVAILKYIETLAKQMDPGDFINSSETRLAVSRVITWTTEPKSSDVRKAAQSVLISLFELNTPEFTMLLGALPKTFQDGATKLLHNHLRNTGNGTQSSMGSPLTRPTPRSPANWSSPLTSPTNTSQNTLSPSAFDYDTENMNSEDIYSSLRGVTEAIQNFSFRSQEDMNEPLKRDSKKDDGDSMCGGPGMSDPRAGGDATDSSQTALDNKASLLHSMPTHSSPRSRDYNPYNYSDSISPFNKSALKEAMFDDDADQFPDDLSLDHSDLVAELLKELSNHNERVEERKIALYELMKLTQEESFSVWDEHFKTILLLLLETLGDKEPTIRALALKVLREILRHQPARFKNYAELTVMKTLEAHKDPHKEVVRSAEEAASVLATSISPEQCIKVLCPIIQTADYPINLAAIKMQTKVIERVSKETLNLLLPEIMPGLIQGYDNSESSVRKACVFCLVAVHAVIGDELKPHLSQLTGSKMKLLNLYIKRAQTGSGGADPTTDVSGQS

[3] = target: αβ-tubulin heterodimer isolated from porcine brain (porcine) (UniProt P02550); assay: co-sedimentation
[4] = target: T3, SR region of human CLASP2 (residues 311-648) (human, UniProt O75122 311-648); assay: ITC
T3 sequence (looked up): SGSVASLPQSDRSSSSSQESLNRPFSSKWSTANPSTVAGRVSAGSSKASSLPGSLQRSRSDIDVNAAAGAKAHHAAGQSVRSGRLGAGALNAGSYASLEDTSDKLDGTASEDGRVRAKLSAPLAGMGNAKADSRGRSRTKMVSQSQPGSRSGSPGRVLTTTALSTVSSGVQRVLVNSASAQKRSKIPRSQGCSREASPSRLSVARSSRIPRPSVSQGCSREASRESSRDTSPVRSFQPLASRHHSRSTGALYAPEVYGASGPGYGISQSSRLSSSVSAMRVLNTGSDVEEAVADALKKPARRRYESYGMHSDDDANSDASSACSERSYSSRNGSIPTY

[5] = target: T3, SR region of human CLASP2 (residues …); assay: ITC; remark: listed apart in the source

Q: Which Kd [1] does the source give for “EB1 (dimeric) (from UniProt Q15691 1-268) (natural protein)” here?
A: 2000 nM

Q: What about the stoichiometry N (CLASP2 versus EB1 dimer) [1] of the same molecule?
A: 2.2

Q: What about the Kd [2] of the same molecule?
A: 1200 nM

Q: And the stoichiometry N (CLASP2 versus EB1 dimer) [2]?
A: 2

B1: human CLASP2 TOG3 domain (hC2-TOG3; residues 649-881) (domain or fragment)
chain: MRQTEDVAEVLNRCASSNWSERKEGLLGLQNLLKNQRTLSRVELKRLCEIFTRMFADPHGKRVFSMFLETLVDFIQVHKDDLQDWLFVLLTQLLKKMGADLLGSVQAKVQKALDVTRESFPNDLQFNILMRFTVDQTQTPSLKVKVAILKYIETLAKQMDPGDFINSSETRLAVSRVITWTTEPKSSDVRKAAQSVLISLFELNTPEFTMLLGALPKTFQDGATKLLHNHLRN
Q: With B1 as the molecule, how does the fold affinity relative to hC2-TOG2 [3] read?
A: 3 fold

B2: EB1 (dimeric) (natural protein, UniProt Q15691 1-268, looked up)
chain: MAVNVYSTSVTSDNLSRHDMLAWINESLQLNLTKIEQLCSGAAYCQFMDMLFPGSIALKKVKFQAKLEHEYIQNFKILQAGFKRMGVDKIIPVDKLVKGKFQDNFEFVQWFKKFFDANYDGKDYDPVAARQGQETAVAPSLVAPALNKPKKPLTSSSAAPQRPISTQRTAAAPKAGPGVVRKNPGVGNGDDEAAELMQQVNVLKLTVEDLEKERDFYFGKLRNIELICQENEGENDPVLQRIVDILYATDEGFVIPDEGGPQEEQEEY
Q: B2 was tested. Which Kd [4] did it give?
A: 2000 ± 400 nM

Q: What about the “stoichiometry N” value [4] of the same molecule?
A: 2 CLASP2 versus EB1 dimer

Q: And the Kd [5]?
A: 3000 ± 400 nM

Q: And the “stoichiometry N” value [5]?
A: 2 CLASP2 versus EB1 dimer
